Reference: patent US20040001801A1 (priority 2002, published 2004)
Square brackets hold non-standard residues; d marks the D form. Peptide text beside a SMILES is read from it. * marks the point of attachment. Doxorubicin(3'-N) = COc1cccc2c1C(=O)c1c(O)c3c(c(O)c1C2=O)C[C@@](O)(C(=O)CO)C[C@@H]3O[C@H]1C[C@H](N*)[C@H](O)[C@H](C)O1; Nle = CCCC[C@H](N)C(=O)O

Settings: mouse, in vivo

CCCC[C@H](NC(=O)[C@H](CO)NC(=O)[C@H](CCCNC(=N)N)NC(=O)CNC(=O)[C@H](CO)NC(=O)CNC(C)=O)C(=O)N[C@H]1C[C@H](O[C@H]2C[C@](O)(C(=O)CO)Cc3c(O)c4c(c(O)c32)C(=O)c2c(OC)cccc2C4=O)O[C@@H](C)[C@H]1O [Ac-Gly-Ser-Gly-Arg-Ser-nLeu-Dox] (Ac-GSGRS[Nle]-{Doxorubicin(3'-N)})
levels of dox and nor-leu dox in the plasma compared with the tumor: lower levels | parent conjugate in the tumor: does not get into the tumor | toxins (norleu dox and dox) concentrations in the tumor: μM concentrations
